The record followed here is the nanobody polyreactivity screen of Harvey et al. (2022).

The nature of the series: yeast display, Sf9 membrane polyspecificity reagent, FACS + sequencing; frameworks hold sequencing errors. The procedure, abridged:
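Polyreactivity labels are assigned by the sorting gate from which each nanobody was recovered. The gates were low and high (top ~1%), set on anti-HA fluorescence for expression and streptavidin fluorescence for reagent binding. Before sorting, galactose-induced (36–48 hours) yeast display cells were stained for 1 hour at 4 °C with 10% biotinylated, detergent-solubilized Sf9 membrane reagent.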
With “QVQLVESGGGLVQAGGSLRLSCAASGITLRRNAMGWYRQAPGKERELVARISTTGGSTYYADSVKGRFTISRDNAKNTVYLQMNSLKPEDTAVYYCAADYVQYEFEYWGQGTQVTVSS”, the “polyreactivity (PSR sort gate)” value is given as “high polyreactivity”.

Consider “QVQLVESGGGLVQAGGSLRLSCAASGITLSQNAMGWYRQAPGKERELVAAIDSGGVDTYYADSVKGRFTISRDNAKNTVYLQMNSLKPEDTAVYYCAVDYSYEYEYWGQGTQVTVSS”, for which the “polyreactivity (PSR sort gate)” value is “low polyreactivity”. The value for “QVQLVESGGGLVQAGGSLRLSCAASGITLTKYAMGWYRQAPGKERELVAAISKRGTNTYYADSVKGRFTISRDNAKNTVYLQMNSLKPEDTAVYYCNAPGHRQNGLGDYWGQGTQVTVSS” was “high polyreactivity”. To “QVQLVESGGGLVQAGGSLRLSCAASGITLTKYGMGWYRQAPGKERELVAAISGSGGSTYYADSVKGRFTISRDNAKNTVYLQMNSLKPEDTAVYYCAARALYPRYYYWGQGTQVTVSS” belongs “high polyreactivity”; to “QVQLVESGGGLVQAGGSLRLSCAASGITLVGNAMGWYRQAPGKERELVADINWSDDSTYYADSVKGRFTISRDNAKNTVYLQMNSLKQEDTAVYYCAADVSWRLYNRSSEYDYWGQGTQVTVSS”, “low polyreactivity”; to “QVQLVESGGGLVQAGGSLRLSCAASGITLVRYAMGWYRQAPGKERELVAAISSSGGSTYYADSVKGRFTISRHNAKNTVYLQMNSLKPEDTAVYYCNAYVHSRRVEFNYWGQGTQVTVSS”, “high polyreactivity”. “QVQLVESGGGLVQAGGSLRLSCAASGITLVRYAMGWYRQAPGKERELVASIRGTGGSTYYADSVKGRFTISRDNAKNTVYLQMNSLKPEDTAVYYCAAGRYDYWGQGTQVTVSS”: the “polyreactivity (PSR sort gate)” value was “high polyreactivity”. The value for “QVQLVESGGGLVQAGGSLRLSCAASGITLVRYAMGWYRQAPGKERELVASITSGASTNYADSVKGRFTISRDNAKNTVYLQMNSLKPEDTAVYYCAAGPPSGGWWGGWYDYWGQGTQVTVSS” was “high polyreactivity”; that for “QVQLVESGGGLVQAGGSLRLSCAASGITLYEYAMGWYRQAPGKERELVAAISTSGGRTRYADSVKGRFTISRDNAKNTVYLQMNSLKPEDTAVYYCAASGFVQISNPRRDYWGQGTQVTVSS” was “high polyreactivity”.

With “QVQLVESGGGLVQAGGSLRLSCAASGITLYNYAMGWYRQAPGTERELVAAISLSGGRTYYADSVKGRFTISRDNAKNTVYLQMNSLKPEDTAVYYCAADWLNSDPYNYWGQGTQVTVSS”, the “polyreactivity (PSR sort gate)” value is listed as “low polyreactivity”.

Turning to “QVQLVESGGGLVQAGGSLRLSCAASGITLYRNVMGWYRQAPGKERELVADISGRGTSTYYADSVKGRFTISRDNAKNTVYLQIHSLKPEDNAVYYCKGEVYLVVYPGLYYYDIYDYWGQGTQVTVSS”, the “polyreactivity (PSR sort gate)” value is “low polyreactivity”. To “QVQLVESGGGLVQAGGSLRLSCAASGITLYRYAMGWYRHAPGKERELVAAISWSGGSTYYADSVKGRFTISRDNAKNTVYLQMNSLKPEDTAVYYCAADDYKDEHDYWGQGTQVTVSS” belongs “high polyreactivity”.

For the sequence “QVQLVESGGGLVQAGGSLRLSCAASGITLYYYVMGWYRQAPGKERELVAAISWNSGRTYYADSVKGRFTISRDNAKNTVYLQMNSLKPEDTAVYYCAARPPVRLTYRYSYDYWGQGTQVTVSS”, the “polyreactivity (PSR sort gate)” value is on record as “high polyreactivity”. In the case of “QVQLVESGGGLVQAGGSLRLSCAASGITPDYAMGWYRQAPGKERELVAAITWSGGRTYYADSVKGRFTISRDNAKNTVYLQMNSLKPEDTAVYYCAAEHYLGYDYWGQGTQVTVSS”, the “polyreactivity (PSR sort gate)” value is reported as “low polyreactivity”. The value for “QVQLVESGGGLVQAGGSLRLSCAASGITSGHNAMGWYRQAPGKERELVADIRTGDSTNYADSVKGRFTISRDNAKNTVYLQMNSLKPEDTAVYYCAADSAYDVTSYGYWGQGTQVTVSS” was “low polyreactivity”; that for “QVQLVESGGGLVQAGGSLRLSCAASGITSGTYAMGWYRQAPGKERELVAAISSSGGRTYYADSVKGRFTISRDNAKNTVYLQMTSLKPEDTAVSYCAAETDTTYAFYWGQGTQVNVSS” was “high polyreactivity”; that for “QVQLVESGGGLVQAGGSLRLSCAASGITSPYAMGWYRQAPGKERELVAAISWSGSSTYYADSVKGRFTISRDNAKYTVYLQMNSLNPEDTAVYYCATLVSASRSRRFGYEYWGQGSQVTVSS” was “high polyreactivity”.

“QVQLVESGGGLVQAGGSLRLSCAASGITSSIYAMGWDRQAPGKERELVAVSTTSGGSTYYADSVKGRYTISRDNAKNTVYLQMNSLKPEDTAVYYCAADSYFYLDLLEDYWGQGTKVTVSS”: the “polyreactivity (PSR sort gate)” value is “low polyreactivity”. To “QVQLVESGGGLVQAGGSLRLSCAASGITSSYAMGWYRQAPGKERELVAAISRGGSTYYADSVKGRFTISRDNAKNTVYLQMNSLKPEDTAVYYCNKRRYPYGWGQGTQVTVSS” belongs “high polyreactivity”.

Consider “QVQLVESGGGLVQAGGSLRLSCAASGITSTYYAMGWYRQAPGKERELVAAISVSGGSTYYADSVKGRFTISRDNAKNTVYLQMNSLKPEDTAVYYCTADSYHTYYYWYDYWGQGTQVTVSS”, for which the “polyreactivity (PSR sort gate)” value is “low polyreactivity”. To “QVQLVESGGGLVQAGGSLRLSCAASGITVKLYPMGWYRQAPGKETELVATINRGSSTYYADSVKGRFTISRDNAKNTVYLLMNSLKPEDTAVYYCAARLIGAGLLIYDYWGQGTQVTVSS” belongs “high polyreactivity”. To “QVQLVESGGGLVQAGGSLRLSCAASGITVRLYAMGWYRQAPGKERELVATIDWSGDSTYYADSVKGRFTISRDNAKNTVYLQMHSLKPEDTAVYYCNAVYVPVGINLGEYDYWGQGTQVTVSS” belongs “low polyreactivity”. The value for “QVQLVESGGGLVQAGGSLRLSCAASGITYRGYAMGWYRQAPGKERELVAAISSGGSTSYADSLKGRFTISRDNAKNTVYLQMNSLKPEDTAVYYCAKDDERKQGQYPPYDSWGQGTQVTVSS” was “low polyreactivity”; that for “QVQLVESGGGLVQAGGSLRLSCAASGITYRPYAMGWYRQTPGKERELVASISRGGSTYYADSVKGRFTISRDNAKNTVYLQMNSLKPEDTAVYYCAAYFAWRYDYWGQGTQVTVSS” was “high polyreactivity”; that for “QVQLVESGGGLVQAGGSLRLSCAASGITYSYNAMGWSRQAPGKERELVAAISSNSDSTYFADSVMGRFTISRDNAKNTVYLQMNSLKPEDTAVYYCAADTPDAAVYSGFYYWGQGTQVTVSS” was “low polyreactivity”.

On to “QVQLVESGGGLVQAGGSLRLSCAASGIYAYVMGWYRQAPGTERELVAAISGTGGRTYYADSVKGRFTISRDNAKNTVYLQMNSLKPEDTAVYYCAARVKYTRYQSILDYYYWGQGTQVTVSS”, for which the “polyreactivity (PSR sort gate)” value was “high polyreactivity”. The value for “QVQLVESGGGLVQAGGSLRLSCAASGIYINAMGWYRQAPGKERELVAAISRGGSTYYADSVKGRFTISRDNAKNTVYLQMNSLKPEDTAVYYCAKLIGRWRLYHTFVKGDYWGQGTQVTVSS” was “high polyreactivity”. To “QVQLVESGGGLVQAGGSLRLSCAASGKPMGWYRQAPGKERELVAAITYGGTTTYYADSVKGRFTISRDNAKNTVYLQMNSQKPEDTAVYYCAADYVFVATPLRYDYWGQGTQVTVSS” belongs “low polyreactivity”; to “QVQLVESGGGLVQAGGSLRLSCAASGKTFVTYAMGWYRQAPGKERELVATISSSGGSTYYADSVKGRFTISRDNAKNTVYLQMNSLKPEDTAVYYCAKQAWAYALYTNFYSGDYGYWGQGTQVTVSS”, “low polyreactivity”. To “QVQLVESGGGLVQAGGSLRLSCAASGLFARNAMGWYRQAPGKERELVAAINRSGGSTYYADSVKGRFTISRDNAKNTVYLQMNSLKPEDTAVYYCNKAFTHTKYLSPIAYEYGYWGQGTQVTVSS” belongs “low polyreactivity”.
